Reference: PMC7719180, “HDAC8-dependent deacetylation of PKM2 directs nuclear localization and glycolysis to promote proliferation in hepatocellular carcinoma” (Cell Death & Disease, 2020)

Target: T1, GST-PKM2 (GST fusion PKM2) (UniProt P14618 1-531)
T1 construct: Pyruvate kinase M2 (PKM2); also called recombinant GST- PKM2; source: E. coli BL21 (DE3), purified (Glutathione-Sepharose 4B)
Test: pull-down; GST-PKM2 on glutathione-sepharose beads incubated with His-HDAC8 at 4 °C (overnight in the methods, 3 h in the legend); washed 5 times with PBST; SDS-PAGE and Coomassie Blue staining; GST-vector as control
Conditions: both partners purified

T1 sequence (P14618 whole entry, the tested form may be a part): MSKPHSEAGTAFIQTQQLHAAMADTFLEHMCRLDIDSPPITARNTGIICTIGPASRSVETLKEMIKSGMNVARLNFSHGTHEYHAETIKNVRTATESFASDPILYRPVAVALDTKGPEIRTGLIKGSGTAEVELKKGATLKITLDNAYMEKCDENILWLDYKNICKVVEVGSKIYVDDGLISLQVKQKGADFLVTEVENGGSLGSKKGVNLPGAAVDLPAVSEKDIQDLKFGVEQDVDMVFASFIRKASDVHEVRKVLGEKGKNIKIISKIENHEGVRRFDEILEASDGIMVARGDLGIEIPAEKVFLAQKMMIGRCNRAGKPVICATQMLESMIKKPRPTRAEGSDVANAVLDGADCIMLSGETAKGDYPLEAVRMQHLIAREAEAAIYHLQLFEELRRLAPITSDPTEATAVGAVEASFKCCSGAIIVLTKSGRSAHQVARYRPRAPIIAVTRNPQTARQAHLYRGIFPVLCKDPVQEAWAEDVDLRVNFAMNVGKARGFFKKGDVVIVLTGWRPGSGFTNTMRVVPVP

B1: His-HDAC8 (His fusion HDAC8) (enzyme, UniProt Q9BY41 1-377, looked up)
chain: MEEPEEPADSGQSLVPVYIYSPEYVSMCDSLAKIPKRASMVHSLIEAYALHKQMRIVKPKVASMEEMATFHTDAYLQHLQKVSQEGDDDHPDSIEYGLGYDCPATEGIFDYAAAIGGATITAAQCLIDGMCKVAINWSGGWHHAKKDEASGFCYLNDAVLGILRLRRKFERILYVDLDLHHGDGVEDAFSFTSKVMTVSLHKFSPGFFPGTGDVSDVGLGKGRYYSVNVPIQDGIQDEKYYQICESVLKEVYQAFNPKAVVLQLGADTIAGDPMCSFNMTPVGIGKCLKYILQWQLATLILGGGGYNLANTARCWTYLTGVILGKTLSSEIPDHEFFTAYGPDYVLEITPSCRPDRNEPHRIQQILNYIKGNLKHVV
notes: Histone deacetylase 8 (HDAC8)
**Q.** Does B1 bind?
**A.** binds
